Laboratory results from article PMC10349104, “Engineering broad-spectrum inhibitors of inflammatory chemokines from subclass A3 tick evasins” (Nature Communications, 2023).
Where “and” joins values, the source holds several entries; their conditions need not be identical. Equal values may be shown once.

Key:
EVA-4 = target: T1, EVA-4 (UniProt P0C8E9 24-127); assay: not stated; Kd of EVA-4 for human chemokines, three readings (source data of Supplementary Fig. 7); method and conditions not told for EVA-4
T1 sequence (looked up): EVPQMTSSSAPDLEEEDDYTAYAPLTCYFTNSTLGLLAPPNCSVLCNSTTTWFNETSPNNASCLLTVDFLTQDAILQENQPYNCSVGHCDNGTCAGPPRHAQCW

[1] = target: T2, EVA-AAM1001, C-terminally Avi-tagged and biotinylated (A. americanum, biotin on the AVI tag); assay: SPR; details: both partners purified
T2 chain: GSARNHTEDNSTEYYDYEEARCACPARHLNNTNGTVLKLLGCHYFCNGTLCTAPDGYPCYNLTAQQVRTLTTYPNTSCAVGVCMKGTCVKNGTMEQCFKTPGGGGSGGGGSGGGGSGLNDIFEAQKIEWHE

B1: CCL11 (ligand)
chain: not shown
notes: source: E. coli Rosetta-gami 2 (DE3), purified (His-Trap, SEC, RP-HPLC)
B1 was tested, and the Kd (EVA-4) was 14.1 nM and 23.5 nM and 22.7 nM.

B2: CCL24 (ligand, human, UniProt O00175 27-119, looked up)
chain: VVIPSPCCMFFVSKRIPENRVVSYQLSSRSTCLKAGVIFTTKKGQQFCGDPKQEWVQRYMKNLDAKQKKASPRARAVAVKGPVQRYPGNQTTC
In the case of B2, the Kd (EVA-4) is reported as 53.8 nM and 54.2 nM and 56.7 nM.

B3: CCL22 (ligand, human, UniProt O00626 25-93, looked up)
chain: GPYGANMEDSVCCRDYVRYRLPLRVVKHFYWTSDSCPRPGVVLLTFRDKEICADPRVPWVKMILNKLSQ
With B3 the Kd (EVA-4) was 8.49 nM and 8.53 nM and 8.35 nM.

B4: CCL18 (ligand, human, UniProt P55774 21-89, looked up)
chain: AQVGTNKELCCLVYTSWQIPQKFIVDYSETSPQCPKPGVILLTKRGRQICADPNKKWVQKYISDLKLNA
For B4, the Kd (EVA-4) was 0.346 nM and 0.451 nM and 0.45 nM.

B5: CCL3 (ligand, human, UniProt P10147 24-92, looked up)
chain: SLAADTPTACCFSYTSRQIPQNFIADYFETSSQCSKPGVIFLTKRSRQVCADPSEEWVQKYVSDLELSA
With B5 the Kd (EVA-4) was 0.175 nM and 0.285 nM and 0.27 nM.

B6: CCL7 (ligand)
chain: not shown
notes: as for B1
With B6 the Kd (EVA-4) was 0.651 nM and 0.847 nM and 0.833 nM.

B7: CCL26 (ligand, human, UniProt Q9Y258 24-94, looked up)
chain: TRGSDISKTCCFQYSHKPLPWTWVRSYEFTSNSCSQRAVIFTTKRGKKVCTHPRKKWVQKYISLLKTPKQL
With B7 the Kd (EVA-4) was 56.5 nM and 69.6 nM and 86.6 nM.

B8: CCL5 (ligand, human, UniProt P13501 24-91, looked up)
chain: SPYSSDTTPCCFAYIARPLPRAHIKEYFYTSGKCSNPAVVFVTRKNRQVCANPEKKWVREYINSLEMS
With B8 the Kd (EVA-4) was 6.07 nM and 5.93 nM and 6.16 nM.

B9: CCL8 (ligand, human, UniProt P80075 24-99, looked up)
chain: QPDSVSIPITCCFNVINRKIPIQRLESYTRITNIQCPKEAVIFKTKRGKEVCADPKERWVRDSMKHLDQIFQNLKP
B9 was tested, and the Kd (EVA-4) was 0.259 nM and 0.49 nM and 0.489 nM.

B10: CCL11(F11A) (ligand)
chain: not shown
notes: also called CC + 1 residue-mutated CCL11; source: E. coli Rosetta-gami 2 (DE3), purified (His-Trap, SEC, RP-HPLC)
B10 was tested, and the “fold increase in affinity over wild type CCL11” value [1] was ~200 fold.

B11: CCL1 (ligand, human, UniProt P22362 24-96, looked up)
chain: KSMQVPFSRCCFSFAEQEIPLRAILCYRNTSSICSNEGLIFKLKRGKEACALDTVGWVQRHRKMLRHCPSKRK
B11 was tested, and the Kd (EVA-4) was 449 nM and 342 nM and 338 nM.

B12: CCL17 (ligand, human, UniProt Q92583 24-94, looked up)
chain: ARGTNVGRECCLEYFKGAIPLRKLKTWYQTSEDCSRDAIVFVTVQGRAICSDPNNKRVKNAVKYLQSLERS
notes: as for B1
In the case of B12, the Kd (EVA-4) is reported as 282 nM and 283 nM and 285 nM.

B13: CCL7(Y13A) (ligand)
chain: not shown
notes: as for B1
In the case of B13, the “fold increase in affinity over wild type CCL7” value [1] is reported as ~10000 fold.
